What was measured:
Test in all cases: cell-based or functional assay
[1] = biological target: T1, ADAMTS4 (human, UniProt O75173 213-685, limits assumed)
T1 sequence (looked up): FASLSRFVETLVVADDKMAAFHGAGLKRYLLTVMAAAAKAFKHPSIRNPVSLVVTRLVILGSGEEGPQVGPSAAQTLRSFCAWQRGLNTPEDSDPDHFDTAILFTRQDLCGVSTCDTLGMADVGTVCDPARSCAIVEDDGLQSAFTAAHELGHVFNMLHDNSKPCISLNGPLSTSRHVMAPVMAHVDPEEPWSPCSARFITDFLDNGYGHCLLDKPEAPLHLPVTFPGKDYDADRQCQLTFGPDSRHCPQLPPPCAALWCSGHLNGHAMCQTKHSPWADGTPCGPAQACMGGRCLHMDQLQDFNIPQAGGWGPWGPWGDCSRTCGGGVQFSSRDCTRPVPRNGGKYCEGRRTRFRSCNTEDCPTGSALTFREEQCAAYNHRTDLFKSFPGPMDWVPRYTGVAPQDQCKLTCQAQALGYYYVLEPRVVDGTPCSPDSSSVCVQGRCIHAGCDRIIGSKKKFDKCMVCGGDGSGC

[2] = biological target: T2, ADAMTS5 (human, UniProt Q9UNA0 262-622, limits assumed)
T2 sequence (looked up): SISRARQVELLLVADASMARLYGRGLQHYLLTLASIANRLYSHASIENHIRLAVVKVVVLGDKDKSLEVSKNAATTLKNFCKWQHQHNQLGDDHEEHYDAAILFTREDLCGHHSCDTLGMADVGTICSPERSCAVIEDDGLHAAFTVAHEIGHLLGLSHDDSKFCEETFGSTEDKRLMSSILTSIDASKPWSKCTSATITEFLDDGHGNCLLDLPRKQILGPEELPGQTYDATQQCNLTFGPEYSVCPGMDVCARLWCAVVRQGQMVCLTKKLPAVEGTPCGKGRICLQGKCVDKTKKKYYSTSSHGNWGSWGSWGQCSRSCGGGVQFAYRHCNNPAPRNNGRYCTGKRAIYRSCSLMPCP

[3] = biological target: T3, MMP1 (human, UniProt P03956 100-469, limits assumed)
T3 sequence (looked up): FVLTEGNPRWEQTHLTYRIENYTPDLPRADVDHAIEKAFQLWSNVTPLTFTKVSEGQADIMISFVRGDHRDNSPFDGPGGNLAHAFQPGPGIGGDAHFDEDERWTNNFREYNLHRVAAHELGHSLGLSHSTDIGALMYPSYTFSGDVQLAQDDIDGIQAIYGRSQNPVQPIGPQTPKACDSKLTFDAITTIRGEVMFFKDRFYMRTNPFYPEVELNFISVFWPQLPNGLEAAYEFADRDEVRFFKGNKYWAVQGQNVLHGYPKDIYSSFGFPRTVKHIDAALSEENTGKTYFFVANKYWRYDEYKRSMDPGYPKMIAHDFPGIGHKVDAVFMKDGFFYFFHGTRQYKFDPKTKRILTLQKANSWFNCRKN

[4] = biological target: MMP8 (human, UniProt P22894 101-467, limits assumed)
Chain of MMP8 (P22894 101-467 limits assumed): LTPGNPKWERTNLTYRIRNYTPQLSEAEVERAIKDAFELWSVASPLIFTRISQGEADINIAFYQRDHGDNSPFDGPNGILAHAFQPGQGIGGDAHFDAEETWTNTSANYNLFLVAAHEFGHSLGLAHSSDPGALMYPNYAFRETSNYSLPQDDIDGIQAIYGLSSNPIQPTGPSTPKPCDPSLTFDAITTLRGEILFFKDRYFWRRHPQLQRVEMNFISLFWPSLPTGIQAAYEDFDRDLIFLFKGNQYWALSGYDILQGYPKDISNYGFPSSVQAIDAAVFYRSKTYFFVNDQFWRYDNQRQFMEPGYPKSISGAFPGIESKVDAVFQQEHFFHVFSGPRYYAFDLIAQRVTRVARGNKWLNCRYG

[5] = biological target: MMP13 (human, UniProt P45452 104-471, limits assumed)
[6] = biological target: T4, MMP2 (human, UniProt P08253 110-660, limits assumed)
T4 sequence (looked up): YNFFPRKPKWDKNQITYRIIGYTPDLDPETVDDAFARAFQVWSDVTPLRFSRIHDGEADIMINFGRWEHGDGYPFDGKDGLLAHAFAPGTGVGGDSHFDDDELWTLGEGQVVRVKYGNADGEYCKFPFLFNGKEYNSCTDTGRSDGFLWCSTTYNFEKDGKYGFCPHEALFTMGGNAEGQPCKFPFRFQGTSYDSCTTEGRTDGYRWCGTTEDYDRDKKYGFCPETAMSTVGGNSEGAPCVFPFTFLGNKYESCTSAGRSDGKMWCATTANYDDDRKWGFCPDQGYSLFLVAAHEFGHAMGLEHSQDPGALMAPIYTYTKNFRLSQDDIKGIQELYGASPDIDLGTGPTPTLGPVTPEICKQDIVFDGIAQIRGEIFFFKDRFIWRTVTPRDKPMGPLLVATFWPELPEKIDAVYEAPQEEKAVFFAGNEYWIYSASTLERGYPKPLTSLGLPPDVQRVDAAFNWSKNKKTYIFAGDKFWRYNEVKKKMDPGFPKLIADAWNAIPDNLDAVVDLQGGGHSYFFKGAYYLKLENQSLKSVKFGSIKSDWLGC

[7] = biological target: MMP9 (human, UniProt P14780 107-707, limits assumed)
Chain of MMP9 (P14780 107-707 limits assumed): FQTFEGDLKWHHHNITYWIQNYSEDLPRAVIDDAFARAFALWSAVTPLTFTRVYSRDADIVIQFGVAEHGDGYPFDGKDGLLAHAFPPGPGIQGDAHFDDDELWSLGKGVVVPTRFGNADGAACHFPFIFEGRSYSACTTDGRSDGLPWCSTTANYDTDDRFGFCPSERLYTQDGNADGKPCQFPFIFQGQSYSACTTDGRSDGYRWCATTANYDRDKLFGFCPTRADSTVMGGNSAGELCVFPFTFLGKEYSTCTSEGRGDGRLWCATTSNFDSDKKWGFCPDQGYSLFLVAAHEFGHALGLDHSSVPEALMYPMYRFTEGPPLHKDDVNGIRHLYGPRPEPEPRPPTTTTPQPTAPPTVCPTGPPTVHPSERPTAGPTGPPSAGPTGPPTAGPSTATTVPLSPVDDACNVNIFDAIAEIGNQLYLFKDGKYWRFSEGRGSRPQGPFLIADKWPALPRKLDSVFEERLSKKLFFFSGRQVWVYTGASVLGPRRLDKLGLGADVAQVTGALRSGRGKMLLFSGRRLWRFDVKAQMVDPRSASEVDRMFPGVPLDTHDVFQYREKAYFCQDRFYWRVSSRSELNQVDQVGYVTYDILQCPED

[8] = biological target: MMP3 (human, UniProt P08254 100-477, limits assumed)
Chain of MMP3 (P08254 100-477 limits assumed): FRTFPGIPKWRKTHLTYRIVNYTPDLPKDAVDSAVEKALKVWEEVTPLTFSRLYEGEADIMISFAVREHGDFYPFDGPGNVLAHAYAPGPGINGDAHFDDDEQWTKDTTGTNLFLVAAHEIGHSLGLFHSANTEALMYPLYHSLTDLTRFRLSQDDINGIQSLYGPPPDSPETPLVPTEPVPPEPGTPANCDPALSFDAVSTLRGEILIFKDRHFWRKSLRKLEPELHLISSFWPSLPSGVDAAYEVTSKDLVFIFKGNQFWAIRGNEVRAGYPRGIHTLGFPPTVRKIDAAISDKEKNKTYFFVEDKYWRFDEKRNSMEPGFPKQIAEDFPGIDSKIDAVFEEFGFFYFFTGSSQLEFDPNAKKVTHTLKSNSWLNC

[9] = biological target: Elastase
[10] = biological target: T5, Cathepsin G (UniProt P08311 21-244)
T5 sequence (looked up): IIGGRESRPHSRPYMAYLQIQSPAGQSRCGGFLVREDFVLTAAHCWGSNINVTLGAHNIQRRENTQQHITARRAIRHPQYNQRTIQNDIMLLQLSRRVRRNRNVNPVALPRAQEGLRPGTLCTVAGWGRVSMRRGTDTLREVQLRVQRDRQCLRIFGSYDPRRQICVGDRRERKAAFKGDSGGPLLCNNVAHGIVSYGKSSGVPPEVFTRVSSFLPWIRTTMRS

[11] = biological target: T6, MMP7 (UniProt P09237 95-267, limits assumed)
T6 sequence (looked up): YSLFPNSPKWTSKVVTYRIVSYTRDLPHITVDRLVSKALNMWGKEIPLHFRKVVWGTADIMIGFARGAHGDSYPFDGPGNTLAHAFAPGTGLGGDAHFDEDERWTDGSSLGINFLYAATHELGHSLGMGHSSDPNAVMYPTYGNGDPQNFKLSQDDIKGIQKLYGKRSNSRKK

Binder | Protease Inhibition (% of WT) [1] | Protease Inhibition (% of WT) [2] | Protease Inhibition (% of WT) [3] | Protease Inhibition (% of WT) [4] | Protease Inhibition (% of WT) [5] | Protease Inhibition (% of WT) [6] | Protease Inhibition (% of WT) [7] | Protease Inhibition (% of WT) [8] | Protease Inhibition (% of WT) [9] | Protease Inhibition (% of WT) [10] | Protease Inhibition (% of WT) [11]
Variant A2M, bait region SEQ ID NO 7 (other) SVSGKPQYMVLVPSLLHTETTEKGCVLLSYLNETVTVSASLESVRGNRSLFTDLEAENDVLHCVAFAVPKSSSNEEVMFLTVQVKGPTQEFKKRTTVMVKNEDSLVFVQTDKSIYKPGQTVKFRVVSMDENFHPLNELIPLVYIQDPKGNRIAQWQSFQLEGGLKQFSFPLSSEPFQGSYKVVVQKKSGGRTEHPFTVEEFVLPKFEVQVTVPKIITILEEEMNVSVCGLYTYGKPVPGHVTVSICRKYSDASDCHGEDSQAFCEKFSGQLNSHGCFYQQVKTKVFQLKRKEYEMKLHTEAQIQEEGTVVELTGRQSSEITRTITKLSFVKVDSHFRQGIPFFGQVRLVDGKGVPIPNKVIFIRGNEANYYSNATTDEHGLVQFSINTTNVMGTSLTVRVNYKDRSPCYGYQWVSEEHEEAHHTAYLVFSPSKSFVHLEPMSHELPCGHTQTVQAHYILNGGTLLGLKKLSFYYLIMAKGGIVRTGTHGLLVKQEDMKGHFSISIPVKSDIAPVARLLIYAVLPTGDVIGDSAKYDVENCLANKVDLSFSPSQSLPASHAHLRVTAAPQSVCALRAVDQSVLLMKPDAELSASSVYNLLPEKDLTGFPGPLNDQDDEDCINRHNVYINGITYTPVSSTNEKDMYSFLEDMGLKAFTNSKIRKPKMCPQLEHGPEGEGEGEGIPENFFGVRYSEDLVVQISELEGRGSVEEPHTKLRKYFPETWIWDLVVVNSAGVAEVGVTVPDTITEWKAGAFCLSEDAGLGISSTASLRAFQPFFVELTMPYSVIRGEAFTLKATVLNYLPKCIRVSVQLEASPAFLAVPVEKEQAPHCICANGRQTVSWAVTPKSLGNVNFTVSAEALESQELCGTEVPSVPEHGRKDTVIKPLLVEPEGLEKETTFNSLLCPSGGEVSEELSLKLPPNVVEESARASVSVLGDILGSAMQNTQNLLQMPYGCGEQNMVLFAPNIYVLDYLNETQQLTPEIKSKAIGYLNTGYQRQLNYKHYDGSYSTFGERYGRNQGNTWLTAFVLKTFAQARAYIFIDEAHITQALIWLSQRQKDNGCFRSSGSLLNNAIKGGVEDEVTLSAYITIALLEIPLTVTHPVVRNALFCLESAWKTAQEGDHGSHVYTKALLAYAFALAGNQDKRKEVLKSLNEEAVKKDNSVHWERPQKPKAPVGHFYEPQAPSAEVEMTSYVLLAYLTAQPAPTSEDLTSATNIVKWITKQQNAQGGFSSTQDTVVALHALSKYGAATFTRTGKAAQVTIQSSGTFSSKFQVDNNNRLLLQQVSLPELPGEYSMKVTGEGCVYLQTSLKYNILPEKEEFPFALGVQTLPQTCDEPKAHTSFQISLSVSYTGSRSASNMAIVDVKMVSGFIPLKPTVKMLERSNHVSRTEVSSNHVLIYLDKVSNQTLSLFFTVLQDVPVRDLKPAIVKVYDYYETDEFAIAEYNAPCSKDLGNADYKDDDDKGASHHHHHH | 222 % of WT | 79 % of WT | 117 % of WT | 81 % of WT | 145 % of WT | 58 % of WT | 39 % of WT | 127 % of WT | 131 % of WT | 157 % of WT | 147 % of WT
Variant A2M, bait region SEQ ID NO 8 (other) SVSGKPQYMVLVPSLLHTETTEKGCVLLSYLNETVTVSASLESVRGNRSLFTDLEAENDVLHCVAFAVPKSSSNEEVMFLTVQVKGPTQEFKKRTTVMVKNEDSLVFVQTDKSIYKPGQTVKFRVVSMDENFHPLNELIPLVYIQDPKGNRIAQWQSFQLEGGLKQFSFPLSSEPFQGSYKVVVQKKSGGRTEHPFTVEEFVLPKFEVQVTVPKIITILEEEMNVSVCGLYTYGKPVPGHVTVSICRKYSDASDCHGEDSQAFCEKFSGQLNSHGCFYQQVKTKVFQLKRKEYEMKLHTEAQIQEEGTVVELTGRQSSEITRTITKLSFVKVDSHFRQGIPFFGQVRLVDGKGVPIPNKVIFIRGNEANYYSNATTDEHGLVQFSINTTNVMGTSLTVRVNYKDRSPCYGYQWVSEEHEEAHHTAYLVFSPSKSFVHLEPMSHELPCGHTQTVQAHYILNGGTLLGLKKLSFYYLIMAKGGIVRTGTHGLLVKQEDMKGHFSISIPVKSDIAPVARLLIYAVLPTGDVIGDSAKYDVENCLANKVDLSFSPSQSLPASHAHLRVTAAPQSVCALRAVDQSVLLMKPDAELSASSVYNLLPEKDLTGFPGPLNDQDDEDCINRHNVYINGITYTPVSSTNEKDMYSFLEDMGLKAFTNSKIRKPKMCPQLEHGPEGEGEGEGIPENFFGVLYSEDLVVQISELEGRGSVEEPHTKLRKYFPETWIWDLVVVNSAGVAEVGVTVPDTITEWKAGAFCLSEDAGLGISSTASLRAFQPFFVELTMPYSVIRGEAFTLKATVLNYLPKCIRVSVQLEASPAFLAVPVEKEQAPHCICANGRQTVSWAVTPKSLGNVNFTVSAEALESQELCGTEVPSVPEHGRKDTVIKPLLVEPEGLEKETTFNSLLCPSGGEVSEELSLKLPPNVVEESARASVSVLGDILGSAMQNTQNLLQMPYGCGEQNMVLFAPNIYVLDYLNETQQLTPEIKSKAIGYLNTGYQRQLNYKHYDGSYSTFGERYGRNQGNTWLTAFVLKTFAQARAYIFIDEAHITQALIWLSQRQKDNGCFRSSGSLLNNAIKGGVEDEVTLSAYITIALLEIPLTVTHPVVRNALFCLESAWKTAQEGDHGSHVYTKALLAYAFALAGNQDKRKEVLKSLNEEAVKKDNSVHWERPQKPKAPVGHFYEPQAPSAEVEMTSYVLLAYLTAQPAPTSEDLTSATNIVKWITKQQNAQGGFSSTQDTVVALHALSKYGAATFTRTGKAAQVTIQSSGTFSSKFQVDNNNRLLLQQVSLPELPGEYSMKVTGEGCVYLQTSLKYNILPEKEEFPFALGVQTLPQTCDEPKAHTSFQISLSVSYTGSRSASNMAIVDVKMVSGFIPLKPTVKMLERSNHVSRTEVSSNHVLIYLDKVSNQTLSLFFTVLQDVPVRDLKPAIVKVYDYYETDEFAIAEYNAPCSKDLGNADYKDDDDKGASHHHHHH | 120 % of WT | 97 % of WT | 48 % of WT | 28 % of WT | 56 % of WT | 33 % of WT | 9 % of WT | < 100 % of WT | 39 % of WT | 12 % of WT | 64 % of WT

From US20230250154A1 (CYTONICS, published 2023)
